Positions count from the first letter of the chain named. One block for each binder: values may come before it.
Experiments:
[1] = biological target: T1, FcγRIIaR (human, UniProt P12318 34-217); assay: SPR
T1 sequence (looked up): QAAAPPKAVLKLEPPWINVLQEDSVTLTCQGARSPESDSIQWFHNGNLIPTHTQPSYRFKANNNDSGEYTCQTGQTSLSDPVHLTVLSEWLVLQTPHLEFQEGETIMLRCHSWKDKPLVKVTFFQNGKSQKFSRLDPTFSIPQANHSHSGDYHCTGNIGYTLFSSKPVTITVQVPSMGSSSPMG

[2] = biological target: T2, FcγRIIb extracellular domain with C-terminal His tag (human, UniProt P31994 43-217); assay: ratio of SPR KDs vs IL6R-B3/IL6R-L
T2 sequence (looked up): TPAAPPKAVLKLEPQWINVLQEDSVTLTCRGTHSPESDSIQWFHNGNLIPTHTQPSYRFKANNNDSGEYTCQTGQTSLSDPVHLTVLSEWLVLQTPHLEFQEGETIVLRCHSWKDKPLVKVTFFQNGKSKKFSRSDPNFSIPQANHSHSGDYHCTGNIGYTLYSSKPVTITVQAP

[3] = biological target: T3, FcγRIIa type R extracellular domain with C-terminal His tag (human, UniProt P12318 34-217); assay: ratio of SPR KDs vs IL6R-B3/IL6R-L
T3 sequence (looked up): T1 sequence (looked up)

[4] = biological target: T2, FcγRIIb extracellular domain with …; assay: ratio of SPR KDs, FcγRIIaR over FcγRIIb, same variant
[5] = biological target: T4, FcγRIIa type H extracellular domain with C-terminal His tag (human, UniProt P12318 34-217); assay: SPR
T4 sequence (looked up): T1 sequence (looked up) with R134H

[6] = biological target: FcγRIIIa type V extracellular domain with C-terminal His tag (human, UniProt P08637 17-208); assay: SPR
[7] = biological target: T5, human FcγRIIb extracellular domain with C-terminal His tag (human, UniProt P31994 43-217); assay: SPR
T5 sequence (looked up): T2 sequence (looked up)

[8] = biological target: human FcγRIIIa type V (Val158) extracellular domain with C-terminal His tag (human, UniProt P08637 17-208); assay: SPR
[9] = biological target: T5, human FcγRIIb extracellular domain with …; assay: SPR; remark: listed apart in the source
[10] = biological target: T6, human FcγRIIa type R (Arg131) extracellular domain with C-terminal His tag (human, UniProt P12318 34-217); assay: SPR
T6 sequence (looked up): T1 sequence (looked up)

[11] = biological target: human FcγRIa extracellular domain with C-terminal His tag (human, UniProt P12314 16-292); assay: SPR
[12] = biological target: T7, FcγRIIb extracellular domain with C-terminal His tag (human, UniProt P31994 43-217); assay: SPR
T7 sequence (looked up): T2 sequence (looked up)

[13] = biological target: T7, FcγRIIb extracellular domain with …; assay: SPR; remark: listed apart in the source
[14] = biological target: T7, FcγRIIb extracellular domain with …; assay: SPR; remark: listed apart in the source
[15] = biological target: T5, human FcγRIIb extracellular domain with …; assay: SPR; remark: listed apart in the source
[16] = biological target: T8, FcγRIIaH (human, UniProt P12318 34-217); assay: SPR
T8 sequence (looked up): T1 sequence (looked up) with R134H

[17] = biological target: T9, human FcγRIIa type H (His131) extracellular domain with C-terminal His tag (human, UniProt P12318 34-217); assay: SPR
T9 sequence (looked up): T1 sequence (looked up) with R134H

[18] = biological target: T5, human FcγRIIb extracellular domain with …; assay: SPR; remark: listed apart in the source
[19] = biological target: T6, human FcγRIIa type R (Arg131) …; assay: SPR; remark: listed apart in the source
[20] = biological target: T10, mouse FcγRIII (mouse, UniProt P08508 31-215); assay: SPR
T10 sequence (looked up): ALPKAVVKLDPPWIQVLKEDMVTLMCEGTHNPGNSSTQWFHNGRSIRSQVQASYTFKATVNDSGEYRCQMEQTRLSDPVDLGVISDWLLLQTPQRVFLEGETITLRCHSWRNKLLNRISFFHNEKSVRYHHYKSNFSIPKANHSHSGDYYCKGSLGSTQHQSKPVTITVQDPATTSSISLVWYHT

Chain of human FcγRIIIa type V (Val158) extracellular domain with C-terminal His tag (P08637 17-208 F176V): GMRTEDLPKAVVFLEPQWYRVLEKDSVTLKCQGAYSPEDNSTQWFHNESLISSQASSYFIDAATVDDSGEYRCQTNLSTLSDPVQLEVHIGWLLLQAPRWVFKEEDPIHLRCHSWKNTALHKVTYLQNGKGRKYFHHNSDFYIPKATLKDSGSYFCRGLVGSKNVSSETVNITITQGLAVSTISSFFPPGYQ
Chain of FcγRIIIa type V extracellular domain with C-terminal His tag (P08637 17-208 F176V): as above
Chain of human FcγRIa extracellular domain with C-terminal His tag (P12314 16-292): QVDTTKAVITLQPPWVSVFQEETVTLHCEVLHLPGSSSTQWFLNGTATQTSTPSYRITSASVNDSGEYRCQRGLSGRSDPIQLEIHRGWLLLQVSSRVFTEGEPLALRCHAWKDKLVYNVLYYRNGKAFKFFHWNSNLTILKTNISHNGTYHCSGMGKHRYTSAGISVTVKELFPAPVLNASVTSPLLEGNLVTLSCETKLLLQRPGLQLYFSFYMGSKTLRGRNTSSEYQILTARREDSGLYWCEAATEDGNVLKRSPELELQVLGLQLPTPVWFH

Kd [1]: 5.9 µM
B1: IL6R-BP144/IL6R-L (antibody, human IgG1, kappa)
heavy: QVQLQESGPGLVKPSETLSLTCAVSGHSISHDHAWSWVRQPPGEGLEWIGFISYSGITNYNPSLQGRVTISRDNSKNTLYLQMNSLRAEDTAVYYCARSLARTTAMDYWGEGTLVTVSSASTKGPSVFPLAPSSKSTSGGTAALGCLVKDYFPEPVTVSWNSGALTSGVHTFPAVLQSSGLYSLSSVVTVPSSSLGTQTYICNVNHKPSNTKVDKKVEPKSCDKTHTCPPCPAPELLGDDSVFLFPPKPKDTLMISRTPEVTCVVVDVSHEDPEVKFNWYVDGVEVHNAKTKPREEQYNSTYRVVSVLTVLHQDWLNGKEYKCKVSNAALPAPIEKTISKAKGQPREPQVYTLPPSRDELTKNQVSLTCLVKGFYPSDIAVEWESNGQPENNYKTTPPVLDSDGSFFLYSKLTVDKSRWQQGNVFSCSVMHEALHNHYTQESLSLSP
light: not shown

KD (IIb) of parent polypeptide/KD (IIb) of altered polypeptide [2]: 152
KD (IIaR) of parent polypeptide/KD (IIaR) of altered polypeptide [3]: 1.9
KD (IIaR)/KD (IIb) [4]: 27.3
Kd [5]: 7.4 µM
Kd [6]: 46 µM
B2: IL6R-BP543/IL6R-L (antibody, human IgG1, kappa)
heavy: B1 heavy with E235D, H270Q, P273G, Y298D, A328K, A332R
light: not shown

KD (IIaR)/KD (IIb) [7]: 38
Kd [8]: 34 µM
KD (IIb) of parent polypeptide/KD (IIb) of altered polypeptide [9]: 369
KD (IIaR) of parent polypeptide/KD (IIaR) of altered polypeptide [10]: 3.4
B3: IL6R-BP539/IL6R-L (antibody, human IgG1, kappa)
heavy: B1 heavy with V266I, S269G, H270E, P273G, E274P, Y298D, A328K, A332R
light: not shown

Kd [8]: 36 µM
Kd [11]: 0.015 µM
B4: IL6R-BP558/IL6R-L (antibody, human IgG1, kappa)
heavy: B1 heavy with V266I, S269G, H270E, P273G, E274D, A328K, A332R
light: not shown

KD (IIaR)/KD (IIb) [12]: 11 ratio
KD (IIaH)/KD (IIb) [13]: 102 ratio
KD (IIb) of parent polypeptide/KD (IIb) of altered polypeptide [14]: 15.7 ratio
B5: IL6R-BP198/IL6R-L (antibody, human IgG1, kappa)
heavy: B1 heavy with E235D, L236Y, D239G, H270D, P273G, A332K
light: not shown

KD (IIaR)/KD (IIb) [7]: 28.3
Kd [8]: 27 µM
KD (IIb) of parent polypeptide/KD (IIb) of altered polypeptide [9]: 756
B6: IL6R-BP533/IL6R-L (antibody, human IgG1, kappa)
heavy: B1 heavy with E235D, V266I, S269G, H270E, P273G, Y298D, A328K, A332R, P398L
light: not shown

Kd [8]: 48 µM
KD (IIaH)/KD (IIb) [15]: 656
KD (IIb) of parent polypeptide/KD (IIb) of altered polypeptide [9]: 406
KD (IIaR) of parent polypeptide/KD (IIaR) of altered polypeptide [10]: 3.3
B7: IL6R-BP550/IL6R-L (antibody, human IgG1, kappa)
heavy: B1 heavy with V266I, S269G, H270E, P273G, E274D, Y298D, A328K, A332R
light: not shown

KD (IIb) of parent polypeptide/KD (IIb) of altered polypeptide [2]: 205
KD (IIaR) of parent polypeptide/KD (IIaR) of altered polypeptide [3]: 2.2
KD (IIaR)/KD (IIb) [4]: 32.8
Kd [5]: 10 µM
Kd [6]: 37 µM
B8: IL6R-BP546/IL6R-L (antibody, human IgG1, kappa)
heavy: B1 heavy with E235D, H270D, P273G, Y298D, A328K, A332R, L360M
light: not shown

KD (IIb) of parent polypeptide/KD (IIb) of altered polypeptide [2]: 162
KD (IIaR) of parent polypeptide/KD (IIaR) of altered polypeptide [3]: 2.2
KD (IIaR)/KD (IIb) [4]: 26.2
Kd [5]: 9.4 µM
Kd [6]: 34 µM
B9: IL6R-BP548/IL6R-L (antibody, human IgG1, kappa)
heavy: B1 heavy with E235D, H270D, P273G, Y298D, A328K, A332R, Q421E
light: not shown

KD (IIb) of parent polypeptide/KD (IIb) of altered polypeptide [2]: 184
KD (IIaR) of parent polypeptide/KD (IIaR) of altered polypeptide [3]: 2.2
KD (IIaR)/KD (IIb) [4]: 28.8
Kd [5]: 12 µM
Kd [6]: 45 µM
B10: IL6R-BP544/IL6R-L (antibody, human IgG1, kappa)
heavy: B1 heavy with E235D, H270D, P273G, Y298D, A328K, A332R, R357Q
light: not shown

Kd [16]: 16 µM
B11: IL6R-BP146/IL6R-L (antibody, human IgG1, kappa)
heavy: B1 heavy with L236Y
light: not shown

KD (IIb) of parent polypeptide/KD (IIb) of altered polypeptide [2]: 190
KD (IIaR) of parent polypeptide/KD (IIaR) of altered polypeptide [3]: 2.4
KD (IIaR)/KD (IIb) [4]: 27.8
Kd [5]: 9.3 µM
Kd [6]: 41 µM
B12: IL6R-BP541/IL6R-L (antibody, human IgG1, kappa)
heavy: B1 heavy with E235D, H270D, P273G, K276Q, Y298D, A328K, A332R
light: not shown

KD (IIaR)/KD (IIb) [7]: 46.1
Kd [8]: 25 µM
Kd [17]: 11 µM
Kd [11]: 0.00019 µM
Kd [18]: 0.015 µM
Kd [19]: 0.68 µM
KD (IIaH)/KD (IIb) [15]: 748
KD (IIb) of parent polypeptide/KD (IIb) of altered polypeptide [9]: 211
KD (IIaR) of parent polypeptide/KD (IIaR) of altered polypeptide [10]: 1.6
B13: IL6R-BP568/IL6R-L (antibody, human IgG1, kappa)
heavy: B1 heavy with E235D, D239G, V266I, S269A, H270E, P273G, A328K
light: not shown

KD (IIaR)/KD (IIb) [7]: 64.4
Kd [8]: 39 µM
Kd [17]: 17 µM
Kd [11]: 0.00021 µM
Kd [18]: 0.014 µM
Kd [19]: 0.89 µM
KD (IIaH)/KD (IIb) [15]: 1230
KD (IIb) of parent polypeptide/KD (IIb) of altered polypeptide [9]: 225
KD (IIaR) of parent polypeptide/KD (IIaR) of altered polypeptide [10]: 1.2
B14: IL6R-BP567/IL6R-L (antibody, human IgG1, kappa)
heavy: B1 heavy with E235D, D239G, V266I, S269A, H270E, P273G, Y298D, A328K
light: not shown

Kd [20]: 0.282 µM
B15: VH3/L(WT)-mIgG1 (antibody)
heavy: QVQLQESGPGLVKPSETLSLTCAVSGHSISHDHAWSWVRQPPGEGLEWIGFISYSGITNYNPSLQGRVTISRDNSKNTLYLQMNSLRAEDTAVYYCARSLARTTAMDYWGEGTLVTVSSAKTTPPSVYPLAPGSAAQTNSMVTLGCLVKGYFPEPVTVTWNSGSLSSGVHTFPAVLQSDLYTLSSSVTVPSSTWPSETVTCNVAHPASSTKVDKKIVPRDCGCKPCICTVPEVSSVFIFPPKPKDVLTITLTPKVTCVVVDISKDDPEVQFSWFVDDVEVHTAQTQPREEQFNSTFRSVSELPIMHQDWLNGKEFKCRVNSAAFPAPIEKTISKTKGRPKAPQVYTIPPPKEQMAKDKVSLTCMITDFFPEDITVEWQWNGQPAENYKNTQPIMDTDGSYFVYSKLNVQKSNWEAGNTFTCSVLHEGLHNHHTEKSLSHSPGK
light: not shown

Reference: patent US20260217793A1 (Chugai, published 2026)
